The values that follow are results of earlier work, collected in paper PMC8760628.

The series has as its target IL-18 mature (Homo sapiens) (UniProt Q14116).

Sequence of IL-18BP (O95998 31-194): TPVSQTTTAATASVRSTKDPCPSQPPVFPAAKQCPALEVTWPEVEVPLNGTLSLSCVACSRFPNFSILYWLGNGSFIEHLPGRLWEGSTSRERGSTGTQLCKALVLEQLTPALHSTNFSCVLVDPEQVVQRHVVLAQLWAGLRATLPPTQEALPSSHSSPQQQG
Sequence of IL-18 mature (Homo sapiens) (Q14116 37-193): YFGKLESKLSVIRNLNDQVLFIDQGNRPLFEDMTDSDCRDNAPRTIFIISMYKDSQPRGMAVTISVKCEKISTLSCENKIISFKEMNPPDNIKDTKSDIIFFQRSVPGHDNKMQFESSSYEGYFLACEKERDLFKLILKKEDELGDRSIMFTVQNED

What is called Kd is the equilibrium constant for the complex coming apart. For IL-18BP (from UniProt O95998), the Kd was 0.5 nM.
